From patent US20250144199A1 (UNIVERSITY OF MARYLAND COLLEGE PARK, published 2025) come the findings set out here.

For the assay, the target named is T1, tandem RBDs-Fc fusion protein (SARS-CoV-2 RBDs-Fc, FIG. 8C).
T1 construct: also called RBDs-IgG Fc; tandem RBD-Fc
Kind of assay: ELISA, biotinylated C1q on coated protein. In general terms: An ELISA detects its analyte on a solid surface through an enzyme-linked reagent.

B1: mouse C1q protein (Complement Technology Cat #M099), biotin-conjugated (other)
chain 1: EDVCRAPNGKDGAPGNPGRPGRPGLKGERGEPGAAGIRTGIRGFKGDPGESGPPGKPGNVGLPGPSGPLGDSGPQGLKGVKGNPGNIRDQPRPAFSAIRQNPMTLGNVVIFDKVLTNQESPYQNHTGRFICAVPGFYYFNFQVISKWDLCLFIKSSSGGQPRDSLSFSNTNNKGLFQVLAGGTVLQLRRGDEVWIEKDPAKGRIYQGTEADSIFSGFLIFPSA
chain 2: QSSCTGPPGIPGIPGVPGVPGSDGQPGTPGIKGEKGLPGLAGDLGEFGEKGDPGIPGTPGKVGPKGPVGPKGTPGPSGPRGPKGDSGDYGATQKVAFSALRTINSPLRPNQVIRFEKVITNANENYEPRNGKFTCKVPGLYYFTYHASSRGNLCVNLVRGRDRDSMQKVVTFCDYAQNTFQVTTGGVVLKLEQEEVVHLQATDKNSLLGIEGANSIFTGFLLFPDMDA
chain 3: SAGCYGIPGMPGMPGAPGKDGHDGLQGPKGEPGIPAVPGTRGPKGQKGEPGMPGHRGKNGPRGTSGLPGDPGPRGPPGEPGVEGRYKQKHQSVFTVTRQTTQYPEANALVRFNSVVTNPQGHYNPSTGKFTCEVPGLYYFVYYTSHTANLCVHLNLNLARVASFCDHMFNSKQVSSGGVLLRLQRGDEVWLSVNDYNGMVGIEGSNSVFSGFLLFPD
Consider B1, for which the binding result is listed as “no binding (tested: C1q 2 µg/ml; 800-7.8 ng/well coated)”.
